What is called Kd is the equilibrium constant for the complex coming apart. A word on the koff: it is the first-order rate constant of dissociation. As usually defined, the kon is the second-order rate constant of association.

Assay [1] addresses human FcRn complex (FCGRT and beta-2 microglobulin), recombinant, purified (human) (UniProt P55899). The assay is described as follows: SPR, anti-human Fab capture, pH 6, steady state. A general note: In SPR one partner is held on a chip, and binding of the other changes the refractive index at the surface.
Assay [2] has the same target. The assay is described as follows: SPR, anti-human Fab capture, pH 7.4, steady state.
For assay [3], the target named is human FcRn (FCGRT and beta-2 microglobulin) expressed on MDCK II cells (human) (UniProt P55899). The assay is described as follows: cell-based or functional assay.
Chain of human FcRn (FCGRT and beta-2 microglobulin) expressed on MDCK II cells (human) (P55899 24-365, chain 1 of 2): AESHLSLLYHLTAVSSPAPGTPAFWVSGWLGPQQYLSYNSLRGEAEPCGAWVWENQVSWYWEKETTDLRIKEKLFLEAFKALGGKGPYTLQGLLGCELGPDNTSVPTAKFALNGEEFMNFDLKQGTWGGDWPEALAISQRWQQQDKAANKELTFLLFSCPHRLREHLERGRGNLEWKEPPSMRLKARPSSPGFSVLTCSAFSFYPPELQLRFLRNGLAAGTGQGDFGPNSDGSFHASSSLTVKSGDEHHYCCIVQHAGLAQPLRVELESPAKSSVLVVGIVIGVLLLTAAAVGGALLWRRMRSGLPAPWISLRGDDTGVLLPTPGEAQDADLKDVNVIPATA
Chain of human FcRn (FCGRT and beta-2 microglobulin) expressed on MDCK II cells (human) (P61769 21-119, chain 2 of 2, further chain): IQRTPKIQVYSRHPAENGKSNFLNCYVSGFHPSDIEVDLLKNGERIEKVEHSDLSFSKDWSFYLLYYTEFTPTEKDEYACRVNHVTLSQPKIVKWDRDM
Assay [4] deals with human FcRn complex (FCGRT and beta-2 microglobulin), recombinant, purified (human) (UniProt P55899). The assay is described as follows: SPR, protein L capture, pH 6, kinetic.
Chain of human FcRn complex (FCGRT and beta-2 microglobulin), recombinant, purified (human) (P55899 24-297 limits assumed, chain 1 of 2): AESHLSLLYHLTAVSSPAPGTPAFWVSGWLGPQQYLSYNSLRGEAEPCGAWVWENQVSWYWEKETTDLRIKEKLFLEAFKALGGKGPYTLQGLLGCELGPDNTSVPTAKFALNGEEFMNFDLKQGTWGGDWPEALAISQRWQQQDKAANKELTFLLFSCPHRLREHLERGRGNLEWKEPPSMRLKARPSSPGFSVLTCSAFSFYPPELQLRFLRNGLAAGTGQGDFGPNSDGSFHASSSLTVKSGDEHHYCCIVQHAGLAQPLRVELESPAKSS
Chain of human FcRn complex (FCGRT and beta-2 microglobulin), recombinant, purified (human) (P61769 21-119 limits assumed, chain 2 of 2, further chain): as the sequence (P61769 21-119, chain 2 of 2, further chain) above
Assay [5] shares this target. Nature of the assay: SPR, protein L capture, pH 7.4, steady state.
In assay [6] the target is murine FcRn complex (Fcgrt and beta-2 microglobulin), recombinant (mouse) (UniProt Q61559). Nature of the assay: binding to mFcRn at pH 7.4 (FIG. 2D).
Chain of murine FcRn complex (Fcgrt and beta-2 microglobulin), recombinant (mouse) (Q61559 22-297, one chain of several): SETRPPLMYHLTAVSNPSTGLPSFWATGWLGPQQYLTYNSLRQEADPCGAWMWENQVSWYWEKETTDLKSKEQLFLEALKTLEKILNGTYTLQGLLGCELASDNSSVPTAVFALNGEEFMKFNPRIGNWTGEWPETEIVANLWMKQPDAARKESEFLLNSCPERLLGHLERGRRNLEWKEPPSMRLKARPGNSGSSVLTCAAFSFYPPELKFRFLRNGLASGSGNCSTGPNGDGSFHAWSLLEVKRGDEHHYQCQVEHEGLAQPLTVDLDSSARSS
Assay [7] has the same target. The assay is described as follows: binding to mFcRn at pH 6.0 (FIG. 2D).

For “anti-Abeta hIgG1 antibody, Fc modification D1 (M252Y/N434Y)”, the Kd in assay [1] is 14 nM; in assay [2] it was 1150 nM.

For the substance “anti-Abeta hIgG1 antibody, Fc modification Q1 (M252Y/T307Q/Q311I/N434Y)”, the Kd worked out at 12.7 nM in assay [1] and 206 nM in assay [2].

As to “anti-Abeta hIgG1 antibody, Fc modification Q2 (M252Y/T307Q/M428L/N434Y)”, the dissociation constant (Kd) is 10.2 nM in assay [1] and 482 nM in assay [2].

In the case of “anti-Abeta hIgG1 antibody, Fc modification Q4 (M252Y/Q311I/M428L/N434Y)”, the figures for the equilibrium dissociation constant (Kd) in assay [1] and in assay [2] were 12.8 nM and 667 nM, respectively.

Consider “anti-Abeta hIgG1 antibody, Fc modification Q5 (M252Y/Q311I/N434Y/Y436I)”, for which the Kd in assay [1] was determined as 10.8 nM; in assay [2], 265 nM.

On to “anti-Abeta hIgG1 antibody, Fc modification Q6 (M252Y/M428L/N434Y/Y436I)”, for which the Kd worked out at 10.2 nM in assay [1] and 367 nM in assay [2].

Take “anti-Abeta hIgG1 antibody, Fc modification Q7 (M252Y/Q311A/N434Y/Y436I)”: the Kd in assay [1] turned out to be 8.2 nM; in assay [2], 292 nM.

For the substance “anti-Abeta hIgG1 antibody, Fc modification Q95 (M252Y/T307Q/Q311A/N434Y)”, the Kd in assay [1] worked out at 8.2 nM; in assay [2] it was 340 nM.

Consider “anti-Abeta hIgG1 antibody, Fc modification T3 (M252Y/Q311I/N434Y)”, for which the Kd in assay [1] came out at 11.6 nM; in assay [2] it was 554 nM.

Regarding “anti-Abeta hIgG1 antibody, Fc modification T94 (M252Y/N286E/N434Y)”, the values for the Kd in assay [1] and in assay [2] were 10.1 nM and 521 nM, respectively.

Consider “anti-Abeta hIgG4 antibody, Fc modification Q1 (M252Y/T307Q/Q311I/N434Y)”, for which the Kd turned out to be 6.3 nM in assay [1] and 165 nM in assay [2].

“anti-Abeta hIgG4 antibody, Fc modification Q3 (M252Y/T307Q/N434Y/Y436I)”: the Kd was determined as 5.9 nM in assay [1] and 158 nM in assay [2].

In the case of “anti-BACE1 hIgG1 antibody, Fc modification D1 (M252Y/N434Y)”, the Transcytosis Normalized to WT (normalized to WT) in assay [3] is 79. The equilibrium dissociation constant (Kd) in assay [1] worked out at 13 nM; in assay [4], 28.7 nM; in assay [2] it was 1010 nM; in assay [5], 963 nM. For the same substance, the koff in assay [4] is 0.0264 s⁻¹. In assay [4], the kon was 919000 M⁻¹ s⁻¹.

“anti-BACE1 hIgG1 antibody, Fc modification Q1 (M252Y/T307Q/Q311I/N434Y)”: in assay [3], the Transcytosis Normalized to WT (normalized to WT) is 132. Further, the Kd in assay [1] was found to be 6.6 nM; in assay [4] it was 4.69 nM; in assay [2], 157 nM; in assay [5], 197 nM. Further, the off-rate (koff) in assay [4] stood at 0.00349 s⁻¹. In addition, the on-rate constant (kon) in assay [4] is 743000 M⁻¹ s⁻¹.

As for “anti-BACE1 hIgG1 antibody, Fc modification Q2 (M252Y/T307Q/M428L/N434Y)”, the Transcytosis Normalized to WT (normalized to WT) in assay [3] was found to be 155. For the same substance, the Kd was 8.7 nM in assay [1], 11.1 nM in assay [4], 211 nM in assay [2] and 663 nM in assay [5]. Besides, the off-rate constant (koff) in assay [4] came to 0.00648 s⁻¹. Moreover, in assay [4], the on-rate constant (kon) was found to be 582000 M⁻¹ s⁻¹.

Turning to “anti-BACE1 hIgG1 antibody, Fc modification Q3 (M252Y/T307Q/N434Y/Y436I)”, in assay [3], the Transcytosis Normalized to WT (normalized to WT) turned out to be 137. The Kd in assay [1] is 6.5 nM; in assay [2], 170 nM; in assay [5] it was 202 nM.

On to “anti-BACE1 hIgG1 antibody, Fc modification Q5 (M252Y/Q311I/N434Y/Y436I)”, for which, in assay [3], the Transcytosis Normalized to WT (normalized to WT) is 133. Further, the equilibrium dissociation constant (Kd) in assay [1] turned out to be 8.8 nM; in assay [4], 5.09 nM; in assay [5], 252 nM.

In the case of “anti-BACE1 hIgG1 antibody, Fc modification Q6 (M252Y/M428L/N434Y/Y436I)”, in assay [3], the Transcytosis Normalized to WT (normalized to WT) amounted to 155. The equilibrium dissociation constant (Kd) in assay [1] worked out at 8.9 nM; in assay [4] it was 7.72 nM; in assay [2], 194 nM; in assay [5], 380 nM. The koff in assay [4] was 0.00494 s⁻¹. Also, the association rate constant (kon) in assay [4] was determined as 639000 M⁻¹ s⁻¹.

On to “anti-BACE1 hIgG1 antibody, Fc modification Q7 (M252Y/Q311A/N434Y/Y436I)”, for which the Transcytosis Normalized to WT (normalized to WT) in assay [3] is 108. The dissociation constant Kd stood at 7.3 nM in assay [1], 6 nM in assay [4], 269 nM in assay [2] and 295 nM in assay [5]. Besides, the dissociation rate constant (koff) in assay [4] stood at 0.00529 s⁻¹. In addition, the kon in assay [4] was 920000 M⁻¹ s⁻¹.

“anti-BACE1 hIgG1 antibody, Fc modification Q95 (M252Y/T307Q/Q311A/N434Y)”: the Transcytosis Normalized to WT (normalized to WT) in assay [3] came out at 100. For the same substance, the equilibrium dissociation constant (Kd) was 6.9 nM in assay [1], 7.35 nM in assay [4], 240 nM in assay [2] and 228 nM in assay [5]. The koff in assay [4] was found to be 0.00608 s⁻¹. The kon in assay [4] was 828000 M⁻¹ s⁻¹.

On to “anti-BACE1 hIgG1 antibody, Fc modification T3 (M252Y/Q311I/N434Y)”, for which the Transcytosis Normalized to WT (normalized to WT) in assay [3] came out at 137. The dissociation constant (Kd) in assay [1] was 9.1 nM; in assay [4] it was 14 nM; in assay [2] it was 307 nM.

As for “anti-BACE1 hIgG1 antibody, Fc modification T94 (M252Y/N286E/N434Y)”, in assay [3], the Transcytosis Normalized to WT (normalized to WT) was determined as 87. In addition, the Kd in assay [4] was found to be 13.6 nM; in assay [2], 380 nM; in assay [5], 452 nM.

Consider “anti-BACE1 hIgG4 antibody, Fc modification Q1-IgG4 (M252Y/T307Q/Q311I/N434Y)”, for which the Transcytosis Normalized to WT (normalized to WT) in assay [3] amounted to 82. The equilibrium dissociation constant (Kd) is 5.2 nM in assay [1], 5.22 nM in assay [4], 120 nM in assay [2] and 114 nM in assay [5].

With “anti-BACE1 hIgG4 antibody, Fc modification Q2 (M252Y/T307Q/M428L/N434Y)”, the equilibrium dissociation constant (Kd) in assay [1] was 6.6 nM; in assay [2], 370 nM.

Take “anti-BACE1 hIgG4 antibody, Fc modification Q3-IgG4 (M252Y/T307Q/N434Y/Y436I)”: in assay [3], the Transcytosis Normalized to WT (normalized to WT) was determined as 87. Further, the values for the Kd in assay [1], in assay [4] and in assay [2] were 4.8 nM, 3.87 nM and 124 nM, respectively.

Substance “anti-BACE1 hIgG4 antibody, Fc modification Q5-IgG4 (M252Y/Q311I/N434Y/Y436I)” displayed a Transcytosis Normalized to WT (normalized to WT) in assay [3] of 95. The Kd is 7.4 nM in assay [1], 13.4 nM in assay [4], 230 nM in assay [2] and 322 nM in assay [5]. The koff in assay [4] was found to be 0.0135 s⁻¹. Further, the association rate constant (kon) in assay [4] stood at 1.01e+06 M⁻¹ s⁻¹.

For “hIgG1 antibody comprising modified Fc M252Y/S254T/T256E (YTE)”, the fold improvement of binding over wild-type hIgG1 in assay [6] amounted to 10 fold. Besides, in assay [3], the Transcytosis Normalized to WT (normalized to WT) was 1.9. For the same substance, in assay [4], the Kd was found to be 154 nM, the koff is 0.0635 s⁻¹ and the on-rate constant (kon) turned out to be 414000 M⁻¹ s⁻¹. The fold improvement of binding over wild-type hIgG1 in assay [7] was found to be 10 fold.
